The values that follow come from IntAct's records for PubMed 20558380.

B1: Vang-like protein 2 (Homo sapiens), Q9ULK5 (parent)
chain: MDTESQYSGYSYKSGHSRSSRKHRDRRDRHRSKSRDGGRGDKSVTIQAPGEPLLDNESTRGDERDDNWGETTTVVTGTSEHSISHDDLTRIAKDMEDSVPLDCSRHLGVAAGATLALLSFLTPLAFLLLPPLLWREELEPCGTACEGLFISVAFKLLILLLGSWALFFRRPKASLPRVFVLRALLMVLVFLLVVSYWLFYGVRILDARERSYQGVVQFAVSLVDALLFVHYLAVVLLELRQLQPQFTLKVVRSTDGASRFYNVGHLSIQRVAVWILEKYYHDFPVYNPALLNLPKSVLAKKVSGFKVYSLGEENSTNNSTGQSRAVIAAAARRRDNSHNEYYYEEAEHERRVRKRRARLVVAVEEAFTHIKRLQEEEQKNPREVMDPREAAQAIFASMARAMQKYLRTTKQQPYHTMESILQHLEFCITHDMTPKAFLERYLAAGPTIQYHKERWLAKQWTLVSEEPVTNGLKDGIVFLLKRQDFSLVVSTKKVPFFKLSEEFVDPKSHKFVMRLQSETSV
partner: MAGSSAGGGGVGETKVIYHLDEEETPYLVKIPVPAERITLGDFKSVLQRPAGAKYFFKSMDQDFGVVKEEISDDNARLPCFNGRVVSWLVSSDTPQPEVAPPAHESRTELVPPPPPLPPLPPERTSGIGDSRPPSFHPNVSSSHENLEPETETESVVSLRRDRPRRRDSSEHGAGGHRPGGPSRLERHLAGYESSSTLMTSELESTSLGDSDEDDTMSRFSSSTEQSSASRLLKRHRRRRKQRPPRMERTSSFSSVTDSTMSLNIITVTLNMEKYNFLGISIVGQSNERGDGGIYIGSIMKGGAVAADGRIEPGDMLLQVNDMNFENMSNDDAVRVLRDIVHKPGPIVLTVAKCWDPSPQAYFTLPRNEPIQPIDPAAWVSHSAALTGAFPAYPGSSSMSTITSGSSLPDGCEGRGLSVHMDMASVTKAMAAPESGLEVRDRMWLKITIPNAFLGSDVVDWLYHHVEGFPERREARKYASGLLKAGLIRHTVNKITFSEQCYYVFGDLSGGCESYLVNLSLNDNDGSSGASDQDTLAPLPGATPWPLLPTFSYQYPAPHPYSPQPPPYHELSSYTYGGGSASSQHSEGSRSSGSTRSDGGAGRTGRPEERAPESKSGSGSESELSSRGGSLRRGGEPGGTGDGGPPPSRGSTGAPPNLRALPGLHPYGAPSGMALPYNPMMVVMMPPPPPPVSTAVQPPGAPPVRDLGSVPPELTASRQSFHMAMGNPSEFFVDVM
B2: Vang-like protein 2 (Homo sapiens), Q9ULK5 (parent)
chain: B1 chain
partner: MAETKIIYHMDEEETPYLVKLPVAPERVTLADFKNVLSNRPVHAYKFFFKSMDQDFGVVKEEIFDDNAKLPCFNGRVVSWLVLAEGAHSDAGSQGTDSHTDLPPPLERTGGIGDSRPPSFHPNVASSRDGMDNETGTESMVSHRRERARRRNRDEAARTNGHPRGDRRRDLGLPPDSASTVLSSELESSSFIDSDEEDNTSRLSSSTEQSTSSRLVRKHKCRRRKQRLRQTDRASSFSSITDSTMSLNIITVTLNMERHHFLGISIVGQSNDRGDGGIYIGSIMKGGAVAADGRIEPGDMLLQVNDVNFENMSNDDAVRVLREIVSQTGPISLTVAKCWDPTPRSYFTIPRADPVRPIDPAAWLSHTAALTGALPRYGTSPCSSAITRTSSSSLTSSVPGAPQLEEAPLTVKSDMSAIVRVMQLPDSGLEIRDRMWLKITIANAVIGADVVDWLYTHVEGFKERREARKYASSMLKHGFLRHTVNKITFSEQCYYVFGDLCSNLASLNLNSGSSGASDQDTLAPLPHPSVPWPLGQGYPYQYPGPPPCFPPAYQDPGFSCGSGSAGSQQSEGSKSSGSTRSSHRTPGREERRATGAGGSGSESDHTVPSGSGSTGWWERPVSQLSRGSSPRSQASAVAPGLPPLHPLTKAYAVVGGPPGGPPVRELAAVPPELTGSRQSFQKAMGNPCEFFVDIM

The variants in one experiment derive from B1. As to conditions: with dvl2_mouse Dvl2, Q60838.
Take MDTESQYSGYSYKSGHSRSSRKHRDRRDRHRSKSRDGGRGDKSVTIQAPGEPLLDNESTRGDERDDNWGETTTVVTGTSEHSISHDDLTRIAKDMEDSVPLDCSRHLGVAAGATLALLSFLTPLAFLLLPPLLWREELEPCGTACEGLFISVAFKLLILLLGSWALFFRRPKASLPRVFVLRALLMVLVFLLVVSYWLFYGVRILDARERSYQGVVQFAVSLVDALLFVHYLAVVLLELRQLQPQFTLKVVRSTEGASRFYNVGHLSIQRVAVWILEKYYHDFPVYNPALLNLPKSVLAKKVSGFKVYSLGEENSTNNSTGQSRAVIAAAARRRDNSHNEYYYEEAEHERRVRKRRARLVVAVEEAFTHIKRLQEEEQKNPREVMDPREAAQAIFASMARAMQKYLRTTKQQPYHTMESILQHLEFCITHDMTPKAFLERYLAAGPTIQYHKERWLAKQWTLVSEEPVTNGLKDGIVFLLKRQDFSLVVSTKKVPFFKLSEEFVDPKSHKFVMRLQSETSV [D255E]: the “effect of a mutation on the interaction” value was “disrupting interaction”.

For MDTESQYSGYSYKSGHSRSSRKHRDRRDRHRSKSRDGGRGDKSVTIQAPGEPLLDNESTRGDERDDNWGETTTVVTGTSEHSISHDDLTRIAKDMEDSVPLDCSRHLGVAAGATLALLSFLTPLAFLLLPPLLWREELEPCGTACEGLFISVAFKLLILLLGSWALFFRRPKASLPRVFVLRALLMVLVFLLVVSYWLFYGVRILDARERSYQGVVQFAVSLVDALLFVHYLAVVLLELRQLQPQFTLKVVRSTDGASRFYNVGHLSIQRVAVWILEKYYHDFPVYNPALLNLPKSVLAKKVSGFKVYSLGEENSTNNSTGQSRAVIAAAARRRDNSHNEYYYEEAEHERRVCKRRARLVVAVEEAFTHIKRLQEEEQKNPREVMDPREAAQAIFASMARAMQKYLRTTKQQPYHTMESILQHLEFCITHDMTPKAFLERYLAAGPTIQYHKERWLAKQWTLVSEEPVTNGLKDGIVFLLKRQDFSLVVSTKKVPFFKLSEEFVDPKSHKFVMRLQSETSV [R353C], the “effect of a mutation on the interaction” value was “decreasing interaction”.

MDTESQYSGYSYKSGHSRSSRKHRDRRDRHRSKSRDGGRGDKSVTIQAPGEPLLDNESTRGDERDDNWGETTTVVTGTSEHSISHDDLTRIAKDMEDSVPLDCSRHLGVAAGATLALLSFLTPLAFLLLPPLLWREELEPCGTACEGLFISVAFKLLILLLGSWALFFRRPKASLPRVFVLRALLMVLVFLLVVSYWLFYGVRILDARERSYQGVVQFAVSLVDALLFVHYLAVVLLELRQLQPQFTLKVVRSTDGASRFYNVGHLSIQRVAVWILEKYYHDFPVYNPALLNLPKSVLAKKVSGFKVYSLGEENSTNNSTGQSRAVIAAAARRRDNSHNEYYYEEAEHERRVRKRRARLVVAVEEAFTHIKRLQEEEQKNPREVMDPREAAQAIFASMARAMQKYLRTTKQQPYHTMESILQHLEFCITHDMTPKAFLERYLAAGPTIQYHKERWLAKQWTLVNEEPVTNGLKDGIVFLLKRQDFSLVVSTKKVPFFKLSEEFVDPKSHKFVMRLQSETSV [S464N]: the “effect of a mutation on the interaction” value is “disrupting interaction”.

Regarding MDTESQYSGYSYKSGHSRSSRKHRDRRDRHRSKSRDGGRGDKSVTIQAPGEPLLDNESTRGDERDDNWGETTTVVTGTSEHSISHDDLTRIAKDMEDSVPLDCSRHLGVAAGATLALLSFLTPLAFLLLPPLLWREELEPCGTACEGLFISVAFKLLILLLGSWALFFRRPKASLPRVFVLRALLMVLVFLLVVSYWLFYGVRILDARERSYQGVVQFAVSLVDALLFVHYLAVVLLELRQLQPQFTLKVVRSTDGASRFYNVGHLSIQRVAVWILEKYYHDFPVYNPALLNLPKSVLAKKVSGFKVYSLGEENSTNNSTGQSRAVIAAAARRRDNSHNEYYYEEAEHERRVRKRRARLVVAVEEAFTHIKRLQEEEQKNPREVMDPREAAQAIFASMARAMQKYLRTTKQQPYHTMESILQHLEFCITHDMTPKASLERYLAAGPTIQYHKERWLAKQWTLVSEEPVTNGLKDGIVFLLKRQDFSLVVSTKKVPFFKLSEEFVDPKSHKFVMRLQSETSV [F437S], the “effect of a mutation on the interaction” value is on record as “disrupting interaction”.

In a further experiment the parent is B2. As to conditions: with dvl1_mouse Dvl1, P51141.
MDTESQYSGYSYKSGHSRSSRKHRDRRDRHRSKSRDGGRGDKSVTIQAPGEPLLDNESTRGDERDDNWGETTTVVTGTSEHSISHDDLTRIAKDMEDSVPLDCSRHLGVAAGATLALLSFLTPLAFLLLPPLLWREELEPCGTACEGLFISVAFKLLILLLGSWALFFRRPKASLPRVFVLRALLMVLVFLLVVSYWLFYGVRILDARERSYQGVVQFAVSLVDALLFVHYLAVVLLELRQLQPQFTLKVVRSTDGASRFYNVGHLSIQRVAVWILEKYYHDFPVYNPALLNLPKSVLAKKVSGFKVYSLGEENSTNNSTGQSRAVIAAAARRRDNSHNEYYYEEAEHERRVRKRRARLVVAVEEAFTHIKRLQEEEQKNPREVMDPREAAQAIFASMARAMQKYLRTTKQQPYHTMESILQHLEFCITHDMTPKASLERYLAAGPTIQYHKERWLAKQWTLVSEEPVTNGLKDGIVFLLKRQDFSLVVSTKKVPFFKLSEEFVDPKSHKFVMRLQSETSV [F437S]: the “effect of a mutation on the interaction” value is “disrupting interaction”.

In the case of MDTESQYSGYSYKSGHSRSSRKHRDRRDRHRSKSRDGGRGDKSVTIQAPGEPLLDNESTRGDERDDNWGETTTVVTGTSEHSISHDDLTRIAKDMEDSVPLDCSRHLGVAAGATLALLSFLTPLAFLLLPPLLWREELEPCGTACEGLFISVAFKLLILLLGSWALFFRRPKASLPRVFVLRALLMVLVFLLVVSYWLFYGVRILDARERSYQGVVQFAVSLVDALLFVHYLAVVLLELRQLQPQFTLKVVRSTEGASRFYNVGHLSIQRVAVWILEKYYHDFPVYNPALLNLPKSVLAKKVSGFKVYSLGEENSTNNSTGQSRAVIAAAARRRDNSHNEYYYEEAEHERRVRKRRARLVVAVEEAFTHIKRLQEEEQKNPREVMDPREAAQAIFASMARAMQKYLRTTKQQPYHTMESILQHLEFCITHDMTPKAFLERYLAAGPTIQYHKERWLAKQWTLVSEEPVTNGLKDGIVFLLKRQDFSLVVSTKKVPFFKLSEEFVDPKSHKFVMRLQSETSV [D255E], the “effect of a mutation on the interaction” value is given as “disrupting interaction”.
